Reference: patent US20140274782A1, “AFFINITY REAGENTS AND METHODS FOR DETECTION, PURIFICATION, AND PROTEOMIC ANALYSIS OF METHYLATED PROTEINS” (The Board of Trustees of the Leland Stanford Junior …, priority 2013, published 2014)

Tested on: 3×MBT domain of L3MBTL1
Assay: SILAC proteomic pull-down 3×MBT vs 3×MBTD355N from 293T nuclear extract, LC-MS/MS
Assay type: binding, human
Details: for Protein Ratio 3xMBT/D355N: SILAC ratio, 293T nuclear extract pull-down, * = protein identified in only one labeling experiment
Description: Protein pull-downs were performed as described above using 600 μg of nuclear extract prepared with isotopic labels as indicated. After eluting with glutathione, 3×MBT domain was removed by dialysis into high salt and rebinding to GSH-sepharose. Bound proteins were separated by SDS-PAGE and analyzed by in-gel tryptic digest followed by LC-MS/MS. Peptides were identified using MaxQuant version 1.2.2.5 (Cox and Mann (2008) Nat. Biotechnol. 26, 1367-1372) and candidate methylated peptides were verified by manual inspection.
For stable isotope labeling by amino acids in cell culture (SILAC) experiments HEK 293T cells were grown for at least six doublings in DMEM for SILAC supplemented with 10% dialyzed fetal bovine serum (FBS), 230 mg/L L-proline and either 100 mg/L each of L-lysine and L-arginine (“light” medium), D4-L-lysine and ^13C6-L-arginine (“medium” media), or ^13C6^15N2-L-lysine and ^13C6^15N4-L-arginine (Thermo Scientific). Heavy methyl labeling used DMEM without L-Methionine or L-Cysteine supplemented with D3^13C-L-Methionine (Sigma), L-Cysteine (Sigma) and 10% dialyzed FBS.
600 μg of nuclear extract was incubated overnight rotating at 4° C. with 20 μl packed 3×MBT or 3×MBTD355N beads in a total volume of 250 μL with binding buffer. Supernatant was removed and saved for use as a loading control. Beads were washed 4×5 minutes with 0.5 mL binding buffer. Protein was eluted by incubating in 20 μL elution buffer (10 mg/mL glutathione in 50 mM Tris pH 8.0) rotating at 4° C. for four hours. Elutions from 3×MBT and 3×MBTD355N were combined and dialyzed overnight at 4° C. against 10,000× volume of dissociation buffer (50 mM Tris pH 7.5, 750 mM NaCl) in a 0.1 mL Slide-A-Lyzer MINI Dialysis Device with 3.5K molecular weight cutoff (Thermo Scientific). 80 μL of GSH-Sepharose was prepared by washing briefly three times with 0.5 mL binding buffer. Dialyzed proteins were added to the GSH-Sepharose and incubated 4 hours rotating at 4° C. to deplete the GST-fusion domains. Supernatant was transferred to a fresh 1.5 mL tube. Proteins were separated by SDS-PAGE on a 10% polyacrylamide gel and stained using SilverQuest Silver Staining Kit (Life Technologies). Lanes were excised, residual 3×MBT band was removed, and gel was diced into 0.5 mm cubes. Gel pieces were destained and processed by in-gel digestion (Carlson et al. (2011) Science Signaling 4) with sequencing grade trypsin (Promega) and the peptide sample was dried completely in a vacuum centrifuge. To prepare a loading control, 2 μL each of light and heavy nuclear extract were combined, 6 μL of 8M urea was added, proteins were denatured by adding 2 μL of 100 mM dithiothreitol in digest buffer (50 mM ammonium bicarbonate) and heating to 60° C. for 1 hour, cysteine was alkylated by adding 2.2 μL 100 mg/mL iodoacetamide in digest buffer and incubating 1 hour at room temperature in darkness, and proteins were digested by adding 80 μL trypsin (Promega) at 12.5 ng/μL in digest buffer and incubating overnight at room temperature in darkness. Digestion was stopped by adding 10 μL of 10% formic acid.
Each experiment consisted of two sets of pull-downs: “forward” labeling with 3×MBT incubated with light nuclear extract and 3×MBTD355N with medium extract, and a second “reverse” labeling experiment with the label conditions swapped. Proteins were included in the results if they were quantified in both labeling directions. To determine reproducibility the entire experiment including the label swap was duplicated using independent protein preparations and a mass spectrometer at another institution.
For 3×MBT pull-down experiment #1 the gel lane was processed and peptides were loaded off-line onto a first dimension trap column (Waters Xbridge, C18, 10 μm particle size, 100 Å pore size, 5 cm packing length, 150 μm column i.d.). […]

| Molecule | Protein Ratio 3xMBT/D355N | also measured |
| --- | --- | --- |
| CMAS: protein with methylated lysine identified in 3xMBT pull-down (protein, UniProt Q8NFW8 1-434, looked up) N-acylneuraminate …: MDSVEKGAATSVSNPRGRPSRGRPPKLQRNSRGGQGRGVEKPPHLAALILARGGSKGIPLKNIKHLAGVPLIGWVLRAALDSGAFQSVWVSTDHDEIENVAKQFGAQVHRRSSEVSKDSSTSLDAIIEFLNYHNEVDIVGNIQATSPCLHPTDLQKVAEMIREEGYDSVFSVVRRHQFRWSEIQKGVREVTEPLNLNPAKRPRRQDWDGELYENGSFYFAKRHLIEMGYLQGGKMAYYEMRAEHSVDIDVDIDWPIAEQRVLRYGYFGKEKLKEIKLLVCNIDGCLTNGHIYVSGDQKEIISYDVKDAIGISLLKKSGIEVRLISERACSKQTLSSLKLDCKMEVSVSDKLAVVDEWRKEMGLCWKEVAYLGNEVSDEECLKRVGLSGAPADACSTAQKAVGYICKCNGGRGAIREFAEHICLLMEKVNNSCQK | 4.2 | – |
| eEF1A1: protein with methylated lysine identified in 3xMBT pull-down (protein, UniProt P68104 2-462, looked up, methylated lysine, protein with methylated lysine identified in 3xMBT pull-down) Elongation factor 1-alpha 1: GKEKTHINIVVIGHVDSGKSTTTGHLIYKCGGIDKRTIEKFEKEAAEMGKGSFKYAWVLDKLKAERERGITIDISLWKFETSKYYVTIIDAPGHRDFIKNMITGTSQADCAVLIVAAGVGEFEAGISKNGQTREHALLAYTLGVKQLIVGVNKMDSTEPPYSQKRYEEIVKEVSTYIKKIGYNPDTVAFVPISGWNGDNMLEPSANMPWFKGWKVTRKDGNASGTTLLEALDCILPPTRPTDKPLRLPLQDVYKIGGIGTVPVGRVETGVLKPGMVVTFAPVNVTTEVKSVEMHHEALSEALPGDNVGFNVKNVSVKDVRRGNVAGDSKNDPPMEAAGFTAQVIILNHPGQISAGYAPVLDCHTAHIACKFAELKEKIDRRSGKKLEDGPKFLKSGDAAIVDMVPGKPMCVESFSDYPPLGRFAVRDMRQTVAVGVIKAVDKKAAGAGKVTKSAQKAQKAK | 5.2 | – |
| DDX1: protein with methylated lysine identified in 3xMBT pull-down (protein, UniProt Q92499 1-740, looked up) ATP-dependent RNA helicase …: MAAFSEMGVMPEIAQAVEEMDWLLPTDIQAESIPLILGGGDVLMAAETGSGKTGAFSIPVIQIVYETLKDQQEGKKGKTTIKTGASVLNKWQMNPYDRGSAFAIGSDGLCCQSREVKEWHGCRATKGLMKGKHYYEVSCHDQGLCRVGWSTMQASLDLGTDKFGFGFGGTGKKSHNKQFDNYGEEFTMHDTIGCYLDIDKGHVKFSKNGKDLGLAFEIPPHMKNQALFPACVLKNAELKFNFGEEEFKFPPKDGFVALSKAPDGYIVKSQHSGNAQVTQTKFLPNAPKALIVEPSRELAEQTLNNIKQFKKYIDNPKLRELLIIGGVAARDQLSVLENGVDIVVGTPGRLDDLVSTGKLNLSQVRFLVLDEADGLLSQGYSDFINRMHNQIPQVTSDGKRLQVIVCSATLHSFDVKKLSEKIMHFPTWVDLKGEDSVPDTVHHVVVPVNPKTDRLWERLGKSHIRTDDVHAKDNTRPGANSPEMWSEAIKILKGEYAVRAIKEHKMDQAIIFCRTKIDCDNLEQYFIQQGGGPDKKGHQFSCVCLHGDRKPHERKQNLERFKKGDVRFLICTDVAARGIDIHGVPYVINVTLPDEKQNYVHRIGRVGRAERMGLAISLVATEKEKVWYHVCSSRGKGCYNTRLKEDGGCTIWYNEMQLLSEIEEHLNCTISQVEPDIKVPVDEFDGKVTYGQKRAAGGGSYKGHVDILAPTVQELAALEKEAQTSFLHLGYLPNQLFRTF | 11.2 | – |
| 3×MBT: three MBT repeats of L3MBTL1 (amino acids 190-530 of accession NP—056293.4), expressed as GST or Flag fusion; methyl-lysine affinity reagent (protein, left off: a dimerising Fc or GST) EEWSSSQPATGEKKECWSWESYLEEQKAITAPVSLFQDSQAVTHNKNGFKLGMKLEGIDPQHPSMYFILTVAEVCGYRLRLHFDGYSECHDFWVNANSPDIHPAGWFEKTGHKLQPPKGYKEEEFSWSQYLRSTRAQAAPKHLFVSQSHSPPPLGFQVGMKLEAVDRMNPSLVCVASVTDVVDSRFLVHFDNWDDTYDYWCDPSSPYIHPVGWCQKQGKPLTPPQDYPDPDNFCWEKYLEETGASAVPTWAFKVRPPHSFLVNMKLEAVDRRNPALIRVASVEDVEDHRIKIHFDGWSHGYDFWIDADHPDIHPAGWCSKTGHPLQPPLGPREPSSASPGG | – | amount of protein captured from nucleoplasmic extract (293T cells, silver stain, relative to the other domain): captured more proteins; number of the 544 identified proteins enriched at 2-fold versus the other domain (SILAC): 313; percentage of the 544 identified proteins enriched at 2-fold versus the other domain (SILAC): 57.5% |
| GTF2I: protein with methylated lysine identified in 3xMBT pull-down (protein, UniProt P78347 2-998, looked up, methylated lysine, protein with methylated lysine identified in 3xMBT pull-down) General transcription factor …: AQVAMSTLPVEDEESSESRMVVTFLMSALESMCKELAKSKAEVACIAVYETDVFVVGTERGRAFVNTRKDFQKDFVKYCVEEEEKAAEMHKMKSTTQANRMSVDAVEIETLRKTVEDYFCFCYGKALGKSTVVPVPYEKMLRDQSAVVVQGLPEGVAFKHPENYDLATLKWILENKAGISFIIKRPFLEPKKHVGGRVMVTDADRSILSPGGSCGPIKVKTEPTEDSGISLEMAAVTVKEESEDPDYYQYNIQAGPSETDDVDEKQPLSKPLQGSHHSSEGNEGTEMEVPAEDSTQHVPSETSEDPEVEVTIEDDDYSPPSKRPKANELPQPPVPEPANAGKRKVREFNFEKWNARITDLRKQVEELFERKYAQAIKAKGPVTIPYPLFQSHVEDLYVEGLPEGIPFRRPSTYGIPRLERILLAKERIRFVIKKHELLNSTREDLQLDKPASGVKEEWYARITKLRKMVDQLFCKKFAEALGSTEAKAVPYQKFEAHPNDLYVEGLPENIPFRSPSWYGIPRLEKIIQVGNRIKFVIKRPELLTHSTTEVTQPRTNTPVKEDWNVRITKLRKQVEEIFNLKFAQALGLTEAVKVPYPVFESNPEFLYVEGLPEGIPFRSPTWFGIPRLERIVRGSNKIKFVVKKPELVISYLPPGMASKINTKALQSPKRPRSPGSNSKVPEIEVTVEGPNNNNPQTSAVRTPTQTNGSNVPFKPRGREFSFEAWNAKITDLKQKVENLFNEKCGEALGLKQAVKVPFALFESFPEDFYVEGLPEGVPFRRPSTFGIPRLEKILRNKAKIKFIIKKPEMFETAIKESTSSKSPPRKINSSPNVNTTASGVEDLNIIQVTIPDDDNERLSKVEKARQLREQVNDLFSRKFGEAIGMGFPVKVPYRKITINPGCVVVDGMPPGVSFKAPSYLEISSMRRILDSAEFIKFTVIRPFPGLVINNQLVDQSESEGPVIQESAEPSQLEVPATEEIKETDGSSQIKQEPDPTW | 1.5 | – |
| MCM4: protein with methylated lysine identified in 3xMBT pull-down (protein, UniProt P33991 2-863, looked up, methylated lysine, protein with methylated lysine identified in 3xMBT pull-down) DNA replication licensing …: SSPASTPSRRGSRRGRATPAQTPRSEDARSSPSQRRRGEDSTSTGELQPMPTSPGVDLQSPAAQDVLFSSPPQMHSSAIPLDFDVSSPLTYGTPSSRVEGTPRSGVRGTPVRQRPDLGSAQKGLQVDLQSDGAAAEDIVASEQSLGQKLVIWGTDVNVAACKENFQRFLQRFIDPLAKEEENVGIDITEPLYMQRLGEINVIGEPFLNVNCEHIKSFDKNLYRQLISYPQEVIPTFDMAVNEIFFDRYPDSILEHQIQVRPFNALKTKNMRNLNPEDIDQLITISGMVIRTSQLIPEMQEAFFQCQVCAHTTRVEMDRGRIAEPSVCGRCHTTHSMALIHNRSLFSDKQMIKLQESPEDMPAGQTPHTVILFAHNDLVDKVQPGDRVNVTGIYRAVPIRVNPRVSNVKSVYKTHIDVIHYRKTDAKRLHGLDEEAEQKLFSEKRVELLKELSRKPDIYERLASALAPSIYEHEDIKKGILLQLFGGTRKDFSHTGRGKFRAEINILLCGDPGTSKSQLLQYVYNLVPRGQYTSGKGSSAVGLTAYVMKDPETRQLVLQTGALVLSDNGICCIDEFDKMNESTRSVLHEVMEQQTLSIAKAGIICQLNARTSVLAAANPIESQWNPKKTTIENIQLPHTLLSRFDLIFLLLDPQDEAYDRRLAHHLVALYYQSEEQAEEELLDMAVLKDYIAYAHSTIMPRLSEEASQALIEAYVDMRKIGSSRGMVSAYPRQLESLIRLAEAHAKVRLSNKVEAIDVEEAKRLHREALKQSATDPRTGIVDISILTTGMSATSRKRKEELAEALKKLILSKGKTPALKYQQLFEDIRGQSDIAITKDMFEEALRALADDDFLTVTGKTVRLL | 6.6 | – |
